{"source": "patent US9127291B2", "about": "“Methods and products for biasing cellular development” (University of Central Florida Research Foundation, Inc., priority 2004, dated 2015)", "molecules": {"B1": {"name": "Lhx8: mouse cDNA clone for Lhx8 (SEQ ID NO: 7) inserted into pcDNA 3.1/Zeo mammalian expression vector (nucleic acid, listed as Mus musculus)", "DNA": "GAATTCGGCACGAGCTTCAGGAAAAGACTTTTCCCCCCACTCCCCCTCCTCTCTGCGAGGTTCCACCCTCTGGAAAACACAACTTTCCCTCTTTTTCTGGAGGGACAGGCCTTAGTGTGGCTGAGAGAGGAAGAACAGTGGGTCAGAGAGTGGTTACGTCACTGTGGCCTTTTTGGAACAAGACACACTGGTGGCATCGCTGTCCTGCCTGTTAGCTTTCCTTGGCCTTTGGGGGCGGAGGAGGGGACACTGCGGACACCCACAGCCTCTGACCCTGCTGGAGCTGGTATGTGACGAGCAGCCCTCGGGCCATGTATTGGAAGAGCGATCAGATGTTTGTGTGTAAGCTGGAGGGAAAGGAGATGCCGGAGCTGGCGGTTCCCCGCGAGATGTGCCCCGGGCTCATGTCGGAGGAGTGCGGGCGGCCTGCAGCTGGCGCCGGGAGGACCCGCAAAGGCTCTGGGGAAGAAGGACTGGTGAATCCCGAGGGAGCCGGGGACGAGGACTCCTGCTCCTCCTCGGGCCCGCTTTCCCCGTCGTCCTCGCCCCAGTCCATGGCCTCGGGTCCGATGTGCCCGCCAGGCAAGTGTGTGTGCAGCAGCTGCGGCCTGGAGATTGTGGACAAATACCTCCTCAAGGTGAATGACTTATGCTGGCATGTCCGCTGTCTCTCCTGCAGTGTCTGCAGAACGTCCCTGGGAAGGCACACGAGCTGCTACATTAAGGATAAAGATATTTTCTGTAAACTCGATTACTTCAGACGGTATGGGACCCGCTGTTCCCGCTGTGGCAGGCACATCCACTCGACTGACTGGGTCCGCAGGGCAAAGGGCAACGTGTATCACCTGGCCTGCTTTGCCTGCTTTTCTTGCAAGAGGCAGCTGTCCACGGGAGAGGAGTTCGCCTTGGTGGAGGAGAAGGTCCTCTGTAGAGTGCACTTTGACTGCATGCTGGACAATCTGAAGAGAGAAGTGGAGAACGGTAATGGGATTAGTGTGGAAGGAGCCCTTCTCACAGAGCAAGACGTCAATCATCCAAAGCCAGCCAAAAGAGCTCGGACCAGCTTCACAGCCGATCAGCTCCAGGTTATGCAAGCACAGTTCGCTCAGGACAACAACCCAGATGCACAGACCCTCCAGAAACTGGCAGAAAGGACAGGCTTAAGCAGACGTGTCATACAGGTGTGGTTTCAGAACTGCAGGGCCCGCCATAAGAAACACGTCAGCCCAAACCATTCTTCCTCGGCCCCCGTCACAGCTGTCCCCTCCTCCAGGCTGTCCCCACCCATCTTGGAAGAAATGGCTTATTCTGCCTACGACCCCCAGGATGACGGGATGCTGACTGCGCACTCATACTTGGATGCTCACCAACAACTCCTGGACTCCAGCCCTTGTTACCCCATCCAATGACCCAGCTGCCAATAAGTCATACCTAATTCCTTCTTTCAGGGATAGAAATGATTGAGGTTATAAACTTGTCATTTTATTATGTATAAAAATA"}}, "test_system": "HNSCs", "experiment": "Co-culture of Lhx8-transfected HNSCs with RA-treated LA-N-2 cells, immunocytochemistry", "format": "cell-based, human", "experimental": "HNSCs culture: Human NSCs were originally purchased from BioWhittaker, Walkersville, Md. These cells have been expanded and passaged in a serum-free culture medium containing bFGF and EGF in our laboratory for over three years (Brannen & Sugaya, 2000). The HNSCs were cultured at a density of 50 spheres in 75 cm^2 culture flasks (Corning, Cambridge, Mass.) in 20 ml of a serum-free supplemented growth medium consisting of HAMS-F12 (Gibco, BRL, Burlington, ON), antibiotic-antimycotic mixture (1:100, Gibco), B27 (1:50, Gibco), human recombinant FGF-2 and EGF (20 ng/ml each, R&D Systems, Minneapolis, Minn.) and heparin (5 μg/ml, Sigma, St. Louis, Mo.) incubated at 37° C. in a 5% CO^2 humidified incubation chamber (Fisher, Pittsburgh, Pa.). To facilitate optimal growth conditions, HNSCs were sectioned into quarters every 2 weeks and fed by replacing 50% of the medium every 4-5 days.\nHNSCs were placed in 6-well poly-lysine coated plates and transfected with 4 μg pcDNA 3.1/Lhx8 plasmid using the Neuroporter transfection system (Gene Therapy Systems, see description in Example 1). Upon the insertion of the Lhx8 gene expressible sequence into the directional cloning vector, the expressible sequence was operatively linked to the CMV promoter, and was also positioned upstream (with regard to reading) of a polyadenylation transcription termination site. Lhx8 expression was confirmed after 48 hrs by RT-PCR using primers designed from the gene cDNA sequence; 5′[…]′ 3 (SEQ ID NO: 12, upper primer) and 5′[…]′3 (SEQ ID NO: 13, lower primer). To initiate differentiation, HNSCs were placed in serum-free basal medium, and allowed to differentiate for 10-15 days in culture.\nHNSCs (˜5×10^4) transfected with pcDNA 3.1/Lhx8 and non-transfected HNSCs (controls) were transferred into cell culture inserts with an appropriate pore size and suspended in basal media (in the absence of FGF-2 and EGF and without the addition of other extrinsic differentiation factors) over differentiated LA-N-2 cells plated in 6-well plates. […]", "note": "Entries after “also recorded” stand apart in the source; their conditions may differ."}
{"molecule": "B1", "values": [{"measurement": "differentiated cell type (βIII-tubulin, ChAT staining)", "setting": "co-culture with LA-N-2 cholinergic cells, serum-free, 10-20 days", "value": "differentiated into mainly βIII-tubulin and ChAT-positive cells; also recorded: differentiated mostly neurons with long extended processes"}, {"measurement": "percentage of transfected cells with characteristics of cholinergic neurons", "setting": "one trial, end of trial", "value": "over 40%"}, {"measurement": "number of cells differentiating to cells having characteristics of cholinergic cells, versus non-transfected HNSCs", "setting": "transfected HNSCs cultured without differentiated LA-N-2 cells", "value": "no significant difference"}]}
